Test results published in the supplement of paper PMC9170038.

Tests used:
MS2 coat protein [1] = assay: apparent KD of MS2 coat protein, switch ON state; designed switch direction (-1 OFF switch, 1 ON switch): -1; higher = weaker reporter binding; details: FMN input: 0 or 200 uM; Eterna round: R93 (includes R88 designs)
Outline: (§1)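 Apparent KD stands for the median, per design, of fits to normalised cluster binding curves. The curves came from titrating on-chip-transcribed RNA switches on Illumina sequencing clusters with SNAP-549-labelled MS2 coat protein, twofold from 0.7 or 1.5 nM to 3 µM. Buffer was 100 mM Tris-HCl pH 7.5, 80 mM KCl, 4 mM MgCl2, without or with constant ligand.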

MS2 coat protein [2] = assay: apparent KD of MS2 coat protein, switch OFF state (with FMN for OFF switches, without FMN for ON switches); designed switch direction (-1 OFF switch, 1 ON switch): -1; higher = weaker reporter binding; details: FMN input: 0 or 200 uM; Eterna round: R93 (includes R88 designs)
Outline: as §1

## AAAGGACGAGGAUAUACAUGAGGAUCACCCAUGUAAAAAACAUAAUAAAAGAACUUAUGUAGAAGGCGUCCAAA [Meechl Ex3 2]
MS2 coat protein [1]
  apparent KD of MS2 coat protein: 53.8 nM
MS2 coat protein [2]
  apparent KD of MS2 coat protein: 318 nM

## AAGAAGUGAGGAUAUCGAAGACUGUCGAAAAGACAGUCGAACGAGAAGGCACAUGAGGAUCACCCAUGUGGAAA [Marsurpial 65% 5]
MS2 coat protein [1]
  apparent KD of MS2 coat protein: 30.7 nM
MS2 coat protein [2]
  apparent KD of MS2 coat protein: 36.3 nM

## AAAAAGUGAGGAUAUACAUGAGGAUCACCCAUGUGUAUAAAAAAUUACACAAAAGAAAGUAGAAGGCACUAAAA [Ex 3 Summer]
MS2 coat protein [1]
  apparent KD of MS2 coat protein: 20.3 nM
MS2 coat protein [2]
  apparent KD of MS2 coat protein: 32 nM

## GUCGUGUGAGGAUAUGGAAAGAAGAAGAAAAGGUAGAAAAACUAGAAGGCACAUGAGGAUCACCCAUGUAAGAA [JR_Exc004_Sub1709]
MS2 coat protein [1]
  apparent KD of MS2 coat protein: 24.1 nM
MS2 coat protein [2]
  apparent KD of MS2 coat protein: 22.3 nM

## AAAAAGGCAGGAUAUGCAUACUCACGGAAAAAAAGGUUGGGACAUGAGGAUCACCCAUGUAGAAGGGCCAAAAA [Dora Explored 14 - Jieux - Exclusion 2]
MS2 coat protein [1]
  apparent KD of MS2 coat protein: 29.6 nM
MS2 coat protein [2]
  apparent KD of MS2 coat protein: 23.8 nM

## GGUUGGCGAGGAUAUACAUGAGGAUCACCCAUGUGAGAGAAAAAAGUGAGAACGAAAAGUAGAAGGCGCUGACG [salish99-ex3-25]
MS2 coat protein [1]
  apparent KD of MS2 coat protein: 23.5 nM
MS2 coat protein [2]
  apparent KD of MS2 coat protein: 1340 nM

## AAAAAGUCAGGAUAUUCGGAUAGGAAAACGAAAACCUAUCCGAAGAAGGGACAUGAGGAUCACCCAUGUGGAAA [67% Ecls-II - Late G segment 1]
MS2 coat protein [1]
  apparent KD of MS2 coat protein: 88.7 nM
MS2 coat protein [2]
  apparent KD of MS2 coat protein: 170 nM

## AAAGGACGAGGAUAUACAUGAGGAUCACCCAUGUGUAAAACGUAAUAAAAGAACUUAUGUAGAAGGCGUCCAAA [Mat - Exclusion 3 - Eli mod - D96]
MS2 coat protein [1]
  apparent KD of MS2 coat protein: 64.7 nM
MS2 coat protein [2]
  apparent KD of MS2 coat protein: 214 nM

## ACUAGUACAGGAUAUACAUGAGGAUCACCCAUGUGAGAAUUAAGUGGCGUACCACAAAGUAGAAGGGUACUAGA [Mat - Exclusion 3 - JL mod - D14]
MS2 coat protein [1]
  apparent KD of MS2 coat protein: 34.3 nM
MS2 coat protein [2]
  apparent KD of MS2 coat protein: 152 nM

## GAAAACUGAGGAUAUACUUUGGGAAAAGAAAAGAUGAUGUUACAUGAGGAUCACCCAUGUAGAAGGCAGAAAAA [Default title]
MS2 coat protein [1]
  apparent KD of MS2 coat protein: 26.4 nM
MS2 coat protein [2]
  apparent KD of MS2 coat protein: 39.4 nM

## AAAAAACAUGAGGAUCACCCAUGUCAGGAUAUCUGUAUUCAAUCCUCGGAUUGAAUACAGAGAAGGGACAUGAA [Ex1: 603]
MS2 coat protein [1]
  apparent KD of MS2 coat protein: 41.3 nM
MS2 coat protein [2]
  apparent KD of MS2 coat protein: 110 nM

## AGAAAACAUGAGGAUCACCCAUGUCAGGAUAUACAAAAUAAAAUAAAAAUAAAAUAAAGUAGAAGGGACAAAGA [Mat - Same state - Mayanna Mod - D109]
MS2 coat protein [1]
  apparent KD of MS2 coat protein: 33.5 nM
MS2 coat protein [2]
  apparent KD of MS2 coat protein: 42.7 nM

## AGUUGGCGAGGAUAUACAUGAGGAUCACCCAUGUAAAAAAAAAAAAAAAAAACUUCAUGUAGAAGGCGCUGACA [Starry Exclusion 3.4 (biggestlegoheroicafanever round 1 mod)]
MS2 coat protein [1]
  apparent KD of MS2 coat protein: 85.5 nM
MS2 coat protein [2]
  apparent KD of MS2 coat protein: 63.1 nM

## AAAAAACAUGAGGAUCACCCAUGUAAGGAUAUGCUGAAAAACACGGAAAAACGUGACAGCAGAAGGUACAAAAG [Mat - Exclusion 1 - Eli mod - D93]
MS2 coat protein [1]
  apparent KD of MS2 coat protein: 11.8 nM
MS2 coat protein [2]
  apparent KD of MS2 coat protein: 84 nM

## AAGAAACAUGAGGAUCACCCAUGUCAGGAUAUCCAAAAGAAAAGAAAAGAAAGAAGAAGGAGAAGGGACAAAGG [Neferkamin Anu]
MS2 coat protein [1]
  apparent KD of MS2 coat protein: 31 nM
MS2 coat protein [2]
  apparent KD of MS2 coat protein: 40.6 nM

## ACGUAGAGAGGAUAUACGAACAUGUCAAAAGACGUGAAGGGACAUGAGGAUCACCCAUGUAGAAGGCUCUACGA [Mat - Exclusion 2 - JL mod - D8]
MS2 coat protein [1]
  apparent KD of MS2 coat protein: 54.8 nM
MS2 coat protein [2]
  apparent KD of MS2 coat protein: 172 nM

## AGCUAGUCAGGAUAUACGAACAGGUGAAAAGACGUAAGGGAACAUGAGGAUCACCCAUGUAGAAGGGACUAGCA [Diamond 53]
MS2 coat protein [1]
  apparent KD of MS2 coat protein: 91.3 nM
MS2 coat protein [2]
  apparent KD of MS2 coat protein: 99.3 nM

## AAAAAGCGAGGAUAUACGAAGCUAAGACAAAUAAGCAAGGGACAUGAGGAUCACCCAUGUAGAAGGCGCAAAAA [Exclusion 2-01... 60% 2]
MS2 coat protein [1]
  apparent KD of MS2 coat protein: 29.4 nM
MS2 coat protein [2]
  apparent KD of MS2 coat protein: 58.6 nM

## AAAAAAGCAGGAUAUACGAACAUGUCGAAAGACGUGAAGGGACAUGAGGAUCACCCAUGUAGAAGGGUUAAGAA [Mat - Exclusion 2 - JL mod - D75]
MS2 coat protein [1]
  apparent KD of MS2 coat protein: 166 nM
MS2 coat protein [2]
  apparent KD of MS2 coat protein: 55 nM

## AUAAACAGAGGAUAUACGCAAAUAAAAGAAAAUAAAGAAACACAUGAGGAUCACCCAUGUAGAAGGCUGGAAAA
MS2 coat protein [1]
  apparent KD of MS2 coat protein: 21.1 nM
MS2 coat protein [2]
  apparent KD of MS2 coat protein: 16.7 nM

## AAGAUGUUAGGAUAUGCUGCUCGUCACAAAAGUGAUGAGUAGCAGAAGGGACAUGAGGAUCACCCAUGUAAAGA [JL eternac mod 6]
MS2 coat protein [1]
  apparent KD of MS2 coat protein: 45.5 nM
MS2 coat protein [2]
  apparent KD of MS2 coat protein: 34.8 nM

## AAGGGACAUGAGGAUCACCCAUGUCAGGAUAUGAUGCGAAUAAAGAAAGAAUAAAGCAUCAGAAGGGACACCAA [Mat - Exclusion 1 - Eli mod - D64]
MS2 coat protein [1]
  apparent KD of MS2 coat protein: 23 nM
MS2 coat protein [2]
  apparent KD of MS2 coat protein: 44.6 nM

## AAAAUACAUGAGGAUCACCCAUGUGAGGAUAUGCUAUGGAAAAUAAAAAUAAAACAUAGCAGAAGGUACAAAAA [Denovo 14]
MS2 coat protein [1]
  apparent KD of MS2 coat protein: 18.2 nM
MS2 coat protein [2]
  apparent KD of MS2 coat protein: 33.4 nM

## AGAAAGUUAGGAUAUACAGAUAAAAAAACGAAAAAAAAUCUGUAGAAGGAACAUGAGGAUCACCCAUGUAAAGA [Mat - Exclusion 4 - Mayanna - D105]
MS2 coat protein [1]
  apparent KD of MS2 coat protein: 28.7 nM
MS2 coat protein [2]
  apparent KD of MS2 coat protein: 23.2 nM

## AAGAAGUAAGGAUAUACAAAAUAAAAGAAAAGAAAGAAAGAACAUGAGGAUCACCCAUGUAGAAGGUACAAGAA [Sankhkare Mentuhotep III]
MS2 coat protein [1]
  apparent KD of MS2 coat protein: 38.1 nM
MS2 coat protein [2]
  apparent KD of MS2 coat protein: 19.6 nM

## AGAUGACAAGGAUAUACUAGGGAUGAUAGUAGAGAAGAAGAACAUGAGGAUCACCCAUGUAGAAGGUGUAAGAA [JR_Exc002_Sub1702]
MS2 coat protein [1]
  apparent KD of MS2 coat protein: 70 nM
MS2 coat protein [2]
  apparent KD of MS2 coat protein: 61.1 nM

## GGUUGGCGAGGAUAUACAUGAGGAUCACCCAUGUGAGAGAAAAAAGUGAGGAGGAGCAGUAGAAGGCGCUGACG [salish99-ex3-19]
MS2 coat protein [1]
  apparent KD of MS2 coat protein: 59.3 nM
MS2 coat protein [2]
  apparent KD of MS2 coat protein: 147 nM

## GUGUACAGAGGAUAUACAUGGGCAUGGAAACAUGCAUCCUCACAUGAGGAUCACCCAUGUAGAAGGCUGUACAC [Ex2: 708]
MS2 coat protein [1]
  apparent KD of MS2 coat protein: 21.6 nM
MS2 coat protein [2]
  apparent KD of MS2 coat protein: 20.9 nM

## AAAAAAUAAGGAUAUACAUUUCGGGAAAUUUUUACAAAAAAACAUGAGGAUCACCCAUGUAGAAGGUAUAAAAA [Exclusion 2]
MS2 coat protein [1]
  apparent KD of MS2 coat protein: 18.6 nM
MS2 coat protein [2]
  apparent KD of MS2 coat protein: 17.7 nM

## AAGAAGAGAGGAUAUACAUAAUAAAAGAAAAGAAACAAAGAACAUGAGGAUCACCCAUGUAGAAGGCUCAAGAA [Khasekhemre Neferhotep I]
MS2 coat protein [1]
  apparent KD of MS2 coat protein: 32.1 nM
MS2 coat protein [2]
  apparent KD of MS2 coat protein: 51 nM

## UAGAACCUAGGAUAUACUUGGAAAAAUAAUGCAAAGAUAUAACAUGAGGAUCACCCAUGUAGAAGGAGGAGUAA [JR_Exc002_Sub020]
MS2 coat protein [1]
  apparent KD of MS2 coat protein: 48.5 nM
MS2 coat protein [2]
  apparent KD of MS2 coat protein: 35.9 nM

## AAGAAGUGAGGAUAUACAUGAGGAUCACCCAUGUAAAAGAAAGAAGGGAAAGAGAAAAGUAGAAGGCGCAAGAA [Neferibre Psamtik II]
MS2 coat protein [1]
  apparent KD of MS2 coat protein: 38.9 nM
MS2 coat protein [2]
  apparent KD of MS2 coat protein: 42.1 nM

## AUUAAACAUGAGGAUCACCCAUGUGAGGAUAUGCAAAAAAAAUUAUAUUAAAAAAAAAGCAGAAGGCACAUAUA [coft]
MS2 coat protein [1]
  apparent KD of MS2 coat protein: 36.3 nM
MS2 coat protein [2]
  apparent KD of MS2 coat protein: 62.3 nM

## AAAAAGUCAGGAUAUGCUUAUAAUAAGAAAAUUAGAGAUAUGCAGAAGGGACAUGAGGAUCACCCAUGUAAAAA [Ex 4.1]
MS2 coat protein [1]
  apparent KD of MS2 coat protein: 53.2 nM
MS2 coat protein [2]
  apparent KD of MS2 coat protein: 36.4 nM
